Four molecules from patent US20150344570A1 (published 2015) can be followed below.

Holding throughout (test): SPR (Biacore); KD of H240-Kn061/H240-Hl071/L73-k0 divided by KD of the variant
Experiment [1] deals with T1, FcγRIIb extracellular domain with C-terminal His tag (human, UniProt P31994 43-217).
T1 construct: extracellular domain; also called FcgRIIb; CD32B; not shown: His tag at the C terminus
T1 sequence (looked up): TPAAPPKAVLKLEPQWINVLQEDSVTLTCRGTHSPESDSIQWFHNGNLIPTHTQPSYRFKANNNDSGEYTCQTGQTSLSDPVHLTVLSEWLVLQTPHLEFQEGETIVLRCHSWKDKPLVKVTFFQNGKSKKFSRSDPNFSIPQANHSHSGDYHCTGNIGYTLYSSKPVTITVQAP

For experiment [2], the target named is T2, FcγRIIIa V extracellular domain with C-terminal His tag (human, UniProt P08637 17-208).
T2 construct: extracellular domain; Soluble receptor, V158 allotype; also called FcgRIIIa V; FcgRIIIaV; not shown: His tag at the C terminus

The target of experiment [3] is T3, FcγRIIIa F extracellular domain with C-terminal His tag (human, UniProt P08637 17-208).
T3 construct: extracellular domain; Soluble receptor, F158 allotype; also called FcgRIIIa F; FcgRIIIaF; not shown: His tag at the C terminus

Experiment [4] addresses T4, FcγRIIa R extracellular domain with C-terminal His tag (human, UniProt P12318 34-217).
T4 construct: extracellular domain; Soluble receptor, R131 allotype; also called FcgRIIa R; FcgRIIaR; not shown: His tag at the C terminus
T4 sequence (looked up): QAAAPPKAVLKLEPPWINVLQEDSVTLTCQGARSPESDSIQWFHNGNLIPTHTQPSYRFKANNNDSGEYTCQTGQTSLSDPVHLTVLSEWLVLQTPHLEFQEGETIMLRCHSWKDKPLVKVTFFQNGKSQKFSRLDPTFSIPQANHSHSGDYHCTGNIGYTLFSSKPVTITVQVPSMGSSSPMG

In experiment [5] the target is T5, FcγRIIa H extracellular domain with C-terminal His tag (human, UniProt P12318 34-217).
T5 construct: extracellular domain; Soluble receptor, H131 allotype; also called FcgRIIa H; FcgRIIaH; not shown: His tag at the C terminus
T5 sequence (looked up): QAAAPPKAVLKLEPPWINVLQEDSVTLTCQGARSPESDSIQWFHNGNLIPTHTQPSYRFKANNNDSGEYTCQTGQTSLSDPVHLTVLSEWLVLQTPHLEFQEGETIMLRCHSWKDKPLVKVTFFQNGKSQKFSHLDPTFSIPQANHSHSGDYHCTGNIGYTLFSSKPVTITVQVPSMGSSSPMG

T3 sequence (P08637 17-208): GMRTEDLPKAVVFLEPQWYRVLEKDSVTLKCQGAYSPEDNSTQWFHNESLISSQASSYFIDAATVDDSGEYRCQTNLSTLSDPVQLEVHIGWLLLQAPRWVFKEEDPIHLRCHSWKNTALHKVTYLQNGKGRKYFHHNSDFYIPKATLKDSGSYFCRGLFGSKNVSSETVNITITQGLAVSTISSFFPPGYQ
T2 sequence (P08637 17-208 F176V): as the sequence (P08637 17-208) above, with F160V counted along it

B1: H240-Kn061/H240-Hl071/L73-k0 variant with F241L introduced into H chain H240-Hl071 (antibody, human IgG1, kappa)
heavy 1: QDQLVQSGAEVKKPGASVKVSCKASGFNIKDTYIQWVRQAPGQGLEWMGRIDPLRKQTKYREKFEGRVTITADTSTNTAYMELSSLRSEDTAVYYCVRSGREFDYWGQGTLVTVSSASTKGPSVFPLAPSSKSTSGGTAALGCLVKDYFPEPVTVSWNSGALTSGVHTFPAVLQSSGLYSLSSVVTVPSSSLGTQTYICNVNHKPSNTKVDKKVEPKSCDKTHTCPPCPAPEYYWGPSVFLFPPKPKDTLMISRTPEVTCVVVDVSDEDPEVKFNWYVDGVEVHNAKTKPREEQYNATYRVVSVLTVLHQDWLNGKEYKCKVSNKALPAPIEKTISKAKGQPREPQVCTLPPSRDELTKNQVSLWCLVKGFYPSDIAVEWESNGQPENNYKTTPPVLDSDGSFFLYSKLTVDKSRWQQGNVFSCSVMHEALHNHYTQKSLSLSP
heavy 2: QDQLVQSGAEVKKPGASVKVSCKASGFNIKDTYIQWVRQAPGQGLEWMGRIDPLRKQTKYREKFEGRVTITADTSTNTAYMELSSLRSEDTAVYYCVRSGREFDYWGQGTLVTVSSASTKGPSVFPLAPSSKSTSGGTAALGCLVKDYFPEPVTVSWNSGALTSGVHTFPAVLQSSGLYSLSSVVTVPSSSLGTQTYICNVNHKPSNTKVDKKVEPKSCDKTHTCPPCPAPELLGGPSVLLFPPKPKDTLMISRTPEVTCVVVDVSHEDPEVKFNWYVDGVEVHNAKTKPREEQYNSTYRVVSVLTVLHQDWLNGKEYKCKVSNDALPMPIEETISKAKGQPREPQVYTLPPSRCELTKNQVSLSCAVKGFYPSDIAVEWESNGQPENNYKTTPPVLDSDGSFFLVSKLTVDKSRWQQGNVFSCSVMHEALHNHYTQKSLSLSP
light: DIQMTQSPSSLSASVGDRVTITCRASQDIHKYIAWYQQKPGQAPRLLIQYTSTLQPGVPSRFSGSGSGTDYTFTISSLQPEDIATYYCLQYEQLRTFGGGTKVEIKRTVAAPSVFIFPPSDEQLKSGTASVVCLLNNFYPREAKVQWKVDNALQSGNSQESVTEQDSKDSTYSLSSTLTLSKADYEKHKVYACEVTHQGLSSPVTKSFNRGEC
notes: Point variant of the heterodimerized anti-epiregulin IgG1 template; also called H240-Hl071 F241L
Turning to B1, the “relative KD” value in experiment [1] was found to be 0.8; in experiment [2] it was 1.3; in experiment [3] it was 1.3; in experiment [4] it was 1.2; in experiment [5], 1.2.

B2: H240-Kn061/H240-Hl071/L73-k0 variant with F241M introduced into H chain H240-Hl071 (antibody, human IgG1, kappa)
heavy 1: QDQLVQSGAEVKKPGASVKVSCKASGFNIKDTYIQWVRQAPGQGLEWMGRIDPLRKQTKYREKFEGRVTITADTSTNTAYMELSSLRSEDTAVYYCVRSGREFDYWGQGTLVTVSSASTKGPSVFPLAPSSKSTSGGTAALGCLVKDYFPEPVTVSWNSGALTSGVHTFPAVLQSSGLYSLSSVVTVPSSSLGTQTYICNVNHKPSNTKVDKKVEPKSCDKTHTCPPCPAPEYYWGPSVFLFPPKPKDTLMISRTPEVTCVVVDVSDEDPEVKFNWYVDGVEVHNAKTKPREEQYNATYRVVSVLTVLHQDWLNGKEYKCKVSNKALPAPIEKTISKAKGQPREPQVCTLPPSRDELTKNQVSLWCLVKGFYPSDIAVEWESNGQPENNYKTTPPVLDSDGSFFLYSKLTVDKSRWQQGNVFSCSVMHEALHNHYTQKSLSLSP
heavy 2: QDQLVQSGAEVKKPGASVKVSCKASGFNIKDTYIQWVRQAPGQGLEWMGRIDPLRKQTKYREKFEGRVTITADTSTNTAYMELSSLRSEDTAVYYCVRSGREFDYWGQGTLVTVSSASTKGPSVFPLAPSSKSTSGGTAALGCLVKDYFPEPVTVSWNSGALTSGVHTFPAVLQSSGLYSLSSVVTVPSSSLGTQTYICNVNHKPSNTKVDKKVEPKSCDKTHTCPPCPAPELLGGPSVMLFPPKPKDTLMISRTPEVTCVVVDVSHEDPEVKFNWYVDGVEVHNAKTKPREEQYNSTYRVVSVLTVLHQDWLNGKEYKCKVSNDALPMPIEETISKAKGQPREPQVYTLPPSRCELTKNQVSLSCAVKGFYPSDIAVEWESNGQPENNYKTTPPVLDSDGSFFLVSKLTVDKSRWQQGNVFSCSVMHEALHNHYTQKSLSLSP
light: DIQMTQSPSSLSASVGDRVTITCRASQDIHKYIAWYQQKPGQAPRLLIQYTSTLQPGVPSRFSGSGSGTDYTFTISSLQPEDIATYYCLQYEQLRTFGGGTKVEIKRTVAAPSVFIFPPSDEQLKSGTASVVCLLNNFYPREAKVQWKVDNALQSGNSQESVTEQDSKDSTYSLSSTLTLSKADYEKHKVYACEVTHQGLSSPVTKSFNRGEC
notes: Point variant of the heterodimerized anti-epiregulin IgG1 template; also called H240-Hl071 F241M
On to B2, for which the “relative KD” value in experiment [1] was 0.9; in experiment [2], 1.3; in experiment [3], 1.3; in experiment [4], 1.3; in experiment [5] it was 1.1.

B3: H240-Kn061/H240-Hl071/L73-k0 variant with L235F introduced into H chain H240-Hl071 (antibody, human IgG1, kappa)
heavy 1: QDQLVQSGAEVKKPGASVKVSCKASGFNIKDTYIQWVRQAPGQGLEWMGRIDPLRKQTKYREKFEGRVTITADTSTNTAYMELSSLRSEDTAVYYCVRSGREFDYWGQGTLVTVSSASTKGPSVFPLAPSSKSTSGGTAALGCLVKDYFPEPVTVSWNSGALTSGVHTFPAVLQSSGLYSLSSVVTVPSSSLGTQTYICNVNHKPSNTKVDKKVEPKSCDKTHTCPPCPAPEYYWGPSVFLFPPKPKDTLMISRTPEVTCVVVDVSDEDPEVKFNWYVDGVEVHNAKTKPREEQYNATYRVVSVLTVLHQDWLNGKEYKCKVSNKALPAPIEKTISKAKGQPREPQVCTLPPSRDELTKNQVSLWCLVKGFYPSDIAVEWESNGQPENNYKTTPPVLDSDGSFFLYSKLTVDKSRWQQGNVFSCSVMHEALHNHYTQKSLSLSP
heavy 2: QDQLVQSGAEVKKPGASVKVSCKASGFNIKDTYIQWVRQAPGQGLEWMGRIDPLRKQTKYREKFEGRVTITADTSTNTAYMELSSLRSEDTAVYYCVRSGREFDYWGQGTLVTVSSASTKGPSVFPLAPSSKSTSGGTAALGCLVKDYFPEPVTVSWNSGALTSGVHTFPAVLQSSGLYSLSSVVTVPSSSLGTQTYICNVNHKPSNTKVDKKVEPKSCDKTHTCPPCPAPELFGGPSVFLFPPKPKDTLMISRTPEVTCVVVDVSHEDPEVKFNWYVDGVEVHNAKTKPREEQYNSTYRVVSVLTVLHQDWLNGKEYKCKVSNDALPMPIEETISKAKGQPREPQVYTLPPSRCELTKNQVSLSCAVKGFYPSDIAVEWESNGQPENNYKTTPPVLDSDGSFFLVSKLTVDKSRWQQGNVFSCSVMHEALHNHYTQKSLSLSP
light: DIQMTQSPSSLSASVGDRVTITCRASQDIHKYIAWYQQKPGQAPRLLIQYTSTLQPGVPSRFSGSGSGTDYTFTISSLQPEDIATYYCLQYEQLRTFGGGTKVEIKRTVAAPSVFIFPPSDEQLKSGTASVVCLLNNFYPREAKVQWKVDNALQSGNSQESVTEQDSKDSTYSLSSTLTLSKADYEKHKVYACEVTHQGLSSPVTKSFNRGEC
notes: Point variant of the heterodimerized anti-epiregulin IgG1 template; also called H240-Hl071 L235F
Regarding B3, the “relative KD” value amounted to 1 in experiment [1]; 1.6 in experiment [2]; 1.9 in experiment [3]; 1.2 in experiment [4]; 1.1 in experiment [5].

B4: H240-Kn061/H240-Hl071/L73-k0 variant with V240A introduced into H chain H240-Hl071 (antibody, human IgG1, kappa)
heavy 1: QDQLVQSGAEVKKPGASVKVSCKASGFNIKDTYIQWVRQAPGQGLEWMGRIDPLRKQTKYREKFEGRVTITADTSTNTAYMELSSLRSEDTAVYYCVRSGREFDYWGQGTLVTVSSASTKGPSVFPLAPSSKSTSGGTAALGCLVKDYFPEPVTVSWNSGALTSGVHTFPAVLQSSGLYSLSSVVTVPSSSLGTQTYICNVNHKPSNTKVDKKVEPKSCDKTHTCPPCPAPEYYWGPSVFLFPPKPKDTLMISRTPEVTCVVVDVSDEDPEVKFNWYVDGVEVHNAKTKPREEQYNATYRVVSVLTVLHQDWLNGKEYKCKVSNKALPAPIEKTISKAKGQPREPQVCTLPPSRDELTKNQVSLWCLVKGFYPSDIAVEWESNGQPENNYKTTPPVLDSDGSFFLYSKLTVDKSRWQQGNVFSCSVMHEALHNHYTQKSLSLSP
heavy 2: QDQLVQSGAEVKKPGASVKVSCKASGFNIKDTYIQWVRQAPGQGLEWMGRIDPLRKQTKYREKFEGRVTITADTSTNTAYMELSSLRSEDTAVYYCVRSGREFDYWGQGTLVTVSSASTKGPSVFPLAPSSKSTSGGTAALGCLVKDYFPEPVTVSWNSGALTSGVHTFPAVLQSSGLYSLSSVVTVPSSSLGTQTYICNVNHKPSNTKVDKKVEPKSCDKTHTCPPCPAPELLGGPSAFLFPPKPKDTLMISRTPEVTCVVVDVSHEDPEVKFNWYVDGVEVHNAKTKPREEQYNSTYRVVSVLTVLHQDWLNGKEYKCKVSNDALPMPIEETISKAKGQPREPQVYTLPPSRCELTKNQVSLSCAVKGFYPSDIAVEWESNGQPENNYKTTPPVLDSDGSFFLVSKLTVDKSRWQQGNVFSCSVMHEALHNHYTQKSLSLSP
light: DIQMTQSPSSLSASVGDRVTITCRASQDIHKYIAWYQQKPGQAPRLLIQYTSTLQPGVPSRFSGSGSGTDYTFTISSLQPEDIATYYCLQYEQLRTFGGGTKVEIKRTVAAPSVFIFPPSDEQLKSGTASVVCLLNNFYPREAKVQWKVDNALQSGNSQESVTEQDSKDSTYSLSSTLTLSKADYEKHKVYACEVTHQGLSSPVTKSFNRGEC
notes: Point variant of the heterodimerized anti-epiregulin IgG1 template; also called H240-Hl071 V240A
With B4, the “relative KD” value came to 1 in experiment [1]; 1.7 in experiment [2]; 1.3 in experiment [3]; 1 in experiment [4]; 1.2 in experiment [5].
